± gives the standard deviation of the averaged measurements.
test system: ATP; assay: switch fluorescence ratio, 500 uM ATP over buffer (Cy3 cluster intensity, sum of 5 cycles each) (fold (ratio)); higher = stronger signal-on switching upon ATP binding; sequences stand for … in TCGTCGGCAGCGTCAGATGTGTATAAGAGACAGTTTTTTTTTTTTTTTTTTTTTTTTT…TC; conditions: aptamer strand: ATP DNA aptamer (quencher-CACCTGGGGGAGTATTGCGGAGGAAGG + anchor), 100 nM annealed; ATP concentration: 500 uM
How it was run: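 Exposure to 500 uM ATP lasted 15 min at 22 °C before imaging, and a selection-buffer image was taken beforehand, for Cy3-labelled switching-strand clusters on a modified Illumina MiSeq flow-cell annealed to 100 nM quencher-labelled ATP aptamer. Five buffer/ATP cycles were run with NaOH stripping and re-annealing between them. The fluorescence ratio per cluster is summed target-cycle over summed buffer-cycle Cy3 intensity, averaged per switch-domain sequence. Clusters outside 100-1000 RFU were excluded.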

Row | Sequence | switch fluorescence ratio
1 | CGGTTCTTGA | 0.995 ± 0.038
2 | TCCATTTTCG | 0.984 ± 0.025
3 | GGGTATAGGG | 1.01 ± 0.037
4 | TGACGTCGTA | 0.9689 ± 0.0094
5 | TTTAACTCTG | 1 ± 0.011
6 | CTCATTTATT | 0.98 ± 0.064
7 | AATGAGACAG | 1 ± 0.02
8 | TGATAGAGTG | 1.01 ± 0.074
9 | CCCCTTGGGG | 1.036 ± 0.0031
10 | TTTCACGCGC | 1.03 ± 0.016
11 | GAGTGGGGGC | 1.01 ± 0.054
12 | TTGTCCGGGG | 1.006 ± 0.0058
13 | TGCTGAATCT | 0.996 ± 0.046
14 | ACACGGGAAG | 1.02 ± 0.011
15 | TGTTGCGGGC | 1 ± 0.12
16 | ATTGTTATCT | 1 ± 0.013
17 | TAAATATCGT | 1 ± 0.013
18 | TGCCGACGTA | 1.03 ± 0.017
19 | GAACGCTGGA | 1.04 ± 0.056
20 | GCCAATGTGG | 1 ± 0.051
21 | GAAGGGGCCC | 1.02 ± 0.013
22 | TAAAAAGTGG | 0.976 ± 0.038
23 | TGTATAATTG | 0.993 ± 0.017

Row | Sequence | switch fluorescence ratio
24 | TCCATTAAAA | 0.976 ± 0.036
25 | CTCCGGGAAA | 1.214 ± 0.0036
26 | CAATCCTATC | 1.02 ± 0.034
27 | GGTGAAGGTG | 1.355 ± 0.0092
28 | ACCTTGCACA | 1.252 ± 0.012
29 | AGTGCGGACA | 1 ± 0.051
30 | AGAAACCGTT | 1.03 ± 0.021
31 | TTGATGGTAA | 0.977 ± 0.022
32 | TGGGTTAAAG | 0.993 ± 0.016
33 | GGATTACTGG | 1.03 ± 0.023
34 | GCGTGTTTTT | 1.04 ± 0.013
35 | TTTGGATATA | 0.9726 ± 0.0041
36 | TAAATGCGCC | 1.09 ± 0.022
37 | TTACAATTTG | 1.01 ± 0.039
38 | TTCGGGTTTT | 1 ± 0.033
39 | ATTTTTATTC | 0.991 ± 0.03
40 | TTCATGAGTT | 1 ± 0.0022
41 | TTTAAACGTA | 0.983 ± 0.033
42 | TCATCTAGGA | 0.985 ± 0.011
43 | TAGCGGGTTT | 1.03 ± 0.023
44 | ATTGGCCGCC | 0.991 ± 0.042
45 | TACTTTTGCT | 0.9669 ± 0.0014
46 | GTATGGCGAC | 1.02 ± 0.011

Row | Sequence | switch fluorescence ratio
47 | CGATCTTGGA | 0.94 ± 0.065
48 | GGGGGGACGG | 0.969 ± 0.04
49 | TCCGGGTATC | 1.33 ± 0.04
50 | AGAGGTCTTG | 0.979 ± 0.029
51 | TGAGGATGGG | 0.975 ± 0.026
52 | GAAGTACCTT | 1.2 ± 0.044
53 | GCTTATGCGG | 0.949 ± 0.014
54 | GCTTGATCCA | 1.01 ± 0.018
55 | ATTTAAATTG | 1.02 ± 0.052
56 | GACCTTAATG | 1.05 ± 0.013
57 | CGGTAGTGCG | 0.975 ± 0.021
58 | GGGATAAGGC | 1.08 ± 0.014
59 | CCAGGAATAA | 1.11 ± 0.14
60 | CAGGAATGCG | 1.04 ± 0.055
61 | GGCATATCGT | 0.949 ± 0.041
62 | TTTTTTGCAA | 1.06 ± 0.061
63 | TAGGTGAAAC | 0.988 ± 0.016
64 | TGGGCCAAGC | 0.995 ± 0.025
65 | CAGCGTATTT | 1.03 ± 0.036
66 | TATTCTCATC | 1.013 ± 0.0027
67 | TGCTGCTAGC | 0.985 ± 0.036
68 | ATGGGAGGGG | 1.01 ± 0.035
69 | AAAGGTCTGG | 0.9794 ± 0.0049

Row | Sequence | switch fluorescence ratio
70 | TTTCGAGCTT | 1.01 ± 0.022
71 | TTTGCAGT | 1.1 ± 0.12
72 | GAGTATAAGC | 0.9844 ± 0.0069
73 | GGGGGCGGCA | 0.988 ± 0.042
74 | TATTTAGTAG | 1.006 ± 0.0072
75 | TGGGTCTTGG | 0.9835 ± 0.0057
76 | TAATTTGGTG | 1.043 ± 0.0083
77 | ACATAGCTTT | 1.03 ± 0.036
78 | GAAGGAAGGT | 0.9996 ± 0.007
79 | CACGCATTTT | 1.12 ± 0.089
80 | ATTTATACGC | 1.06 ± 0.038
81 | TTTGCTCTTA | 1 ± 0.056
82 | GGAAAACTGG | 1.01 ± 0.0017
83 | CTAGGATTAA | 0.985 ± 0.013
84 | GTCATTTTTG | 1.02 ± 0.025
85 | TTTGCTGCAG | 1.003 ± 0.003
86 | CTGTAGGGGC | 1.09 ± 0.062
87 | GACCTCGGGA | 1.024 ± 0.0028
88 | GAAGTAGCGG | 1.018 ± 0.0084
89 | GGTGCCTGTT | 1 ± 0.011
90 | AGTAGAAGAT | 0.9552 ± 0.0071
91 | GCGTCAGCGG | 0.981 ± 0.02
92 | GGAGGTTGTG | 0.987 ± 0.017

Row | Sequence | switch fluorescence ratio
93 | CTAGATCGGT | 0.982 ± 0.051
94 | TGAAAGGCTT | 1.06 ± 0.074
95 | ATAACGCAGT | 1.0027 ± 0.00069
96 | CGACTAGGTA | 1 ± 0.062
97 | TGTGTAGGGG | 1.04 ± 0.079
98 | CGTGGGCTGT | 0.9817 ± 0.0074
99 | AGTGCGGGGG | 1.036 ± 0.0073
100 | TCGGGAGGGG | 0.989 ± 0.033
101 | TTTGTTGAGC | 1.44 ± 0.66
102 | ATATGTCAGA | 0.9958 ± 0.0056
103 | TACACATTTT | 1.07 ± 0.026
104 | GCTACTCGAA | 1.06 ± 0.02
105 | CCTTTTGGGC | 0.97636 ± 3.3e-05
106 | CTGAGGTGGT | 0.991 ± 0.046
107 | TCTGCCTTGG | 0.984 ± 0.011
108 | TTTCGGAAAA | 1.24 ± 0.41
109 | TAAAGGAAAA | 1.01 ± 0.015
110 | ATCATGCGGC | 0.983 ± 0.014
111 | ATTACGTATT | 1.103 ± 0.0095
112 | CATTGGGTG | 1.05 ± 0.018
113 | ACTTTTCGGG | 0.9921 ± 0.0056
114 | GGGTTCACGG | 1 ± 0.014
115 | AAGAGGTCAG | 1.033 ± 0.0016

Row | Sequence | switch fluorescence ratio
116 | TTCTCGTACA | 1.19 ± 0.29
117 | GAAGAATAGG | 0.967 ± 0.015
118 | CGCTGAGATC | 1.016 ± 0.002
119 | AAGCTGTTAT | 1.16 ± 0.29
120 | GGAAGGAGGG | 1 ± 0.033
121 | ATTTTTCGAT | 1 ± 0.026
122 | TGGGATTTAG | 1 ± 0.044
123 | GGGGTAGTAG | 0.979 ± 0.013
124 | TAAGGGGGGC | 0.98 ± 0.029
125 | GATGTAGGTG | 1.007 ± 0.0071
126 | TTTCATACTC | 1.29 ± 0.21
127 | AGCCCTCGTT | 1 ± 0.043
128 | TTGTTAGAAA | 1.002 ± 0.0058
129 | AAAATAGGGG | 1.04 ± 0.044
130 | GGGAATAATA | 0.991 ± 0.023
131 | TTGGTATTTG | 0.993 ± 0.018
132 | TCGGATAGGT | 1.02 ± 0.025
133 | AAACTTGGCT | 1.024 ± 0.0074
134 | AGCTGGGGGG | 0.982 ± 0.044
135 | ACATGGGGGA | 1.02 ± 0.0082
136 | TCAATAGAGG | 1.05 ± 0.034
137 | TTCAGTTCGT | 1.008 ± 0.0089
138 | TATTAAAGGG | 0.985 ± 0.017

Row | Sequence | switch fluorescence ratio
139 | AGACGGTATG | 1.02 ± 0.0061
140 | TAGCAGACGG | 1.03 ± 0.015
141 | ACAGTTGGCC | 1.02 ± 0.021
142 | ATAAGGATGG | 0.9788 ± 0.0034
143 | AGCCTTAGGG | 1 ± 0.02
144 | GGGTGGGGAC | 0.975 ± 0.015
145 | GTTGCAGTGT | 1.02 ± 0.037
146 | GGTGGAAGGA | 1.02 ± 0.029
147 | GGATTCTAAT | 0.982 ± 0.01
148 | CTCTGTGGTG | 1.02 ± 0.048
149 | TTACAATATT | 1.07 ± 0.03
150 | AGGCCGGCTG | 0.96 ± 0.066
151 | GAAAAGGGT | 1.08 ± 0.065
152 | AAATGCGGTA | 1 ± 0.056
153 | AAGGAGAGGG | 1 ± 0.096
154 | TTGGAGGCGG | 0.984 ± 0.066
155 | TTGTGAGTAG | 1 ± 0.028
156 | TCTCGGGCTT | 0.9873 ± 0.0047
157 | ATAAACTTGG | 1.01 ± 0.033
